Measurements from patent US20200095340A1.
Positions count from the first letter of the chain named.

B1: anti-DLL3 trispecific protein 4C010 (protein, part only; not given: CD3 binder and albumin binder, part only)
chain, part: EVQLVESGGGLVQPGGSLTLSCAASGSKVSFMSMAWYRQAPGKKRELVAGISADGSTDYIDSVKGRFTISRDNAKNSVYLQMNSLRAEDTAVYYCYAYRWTTRLTYWGQGTLVTVSSGGGGSGGGSGGGGSGGGSHHHHHH
B2: anti-DLL3 trispecific protein 3H06 (protein, part only; not given: anti-CD3 and anti-albumin domains, part only)
chain, part: B1 chain, part with K28S, F31Q, M32L, I60F, L104G
B3: anti-DLL3 trispecific protein 4G08 (protein, part only; not given: anti-CD3 fragment and anti-albumin sdAb, part only)
chain, part: B1 chain, part with K28S, S30R, M32L, A53T, L104Y, T105R
B4: anti-DLL3 trispecific protein 3C09 (protein, part only; not given: anti-CD3 and anti-albumin domains, part only)
chain, part: B1 chain, part with K28S, M32L, D58I, T101R, L104Y
B5: anti-DLL3 trispecific protein 4G011 (protein, part only; not given: anti-CD3 fragment and anti-albumin sdAb, part only)
chain, part: B1 chain, part with K28S, S30R, M32L, D61G, T101S, L104Y
B6: anti-DLL3 trispecific protein 4E08 (protein, part only; not given: anti-CD3 fragment and anti-albumin sdAb, part only)
chain, part: B1 chain, part with K28S, S30K, M32L, A53T, R99K, L104Y
B7: anti-DLL3 trispecific protein 4C05 (protein, part only; not given: anti-CD3 and anti-albumin domains, part only)
chain, part: B1 chain, part with K28S, F31N, M32L, D58A, L104R
B8: anti-DLL3 trispecific protein 4F011 (protein, part only; not given: anti-CD3 and anti-albumin domains, part only)
chain, part: B1 chain, part with M32L, T57K, L104Y
B9: anti-DLL3 trispecific protein 4C07 (protein, part only; not given: anti-CD3 and anti-albumin domains, part only)
chain, part: B1 chain, part with M32L, T57K
B10: anti-DLL3 trispecific protein 3F011 (protein, part only; not given: anti-CD3 and anti-albumin domains, part only)
chain, part: B1 chain, part with K28S, M32L, A53T, T101R, L104Y
B11: anti-DLL3 trispecific protein 3F05 (protein, part only; not given: CD3 binder and albumin binder, part only)
chain, part: B1 chain, part with M32L, A53T, L104R
B12: anti-DLL3 trispecific protein 4B02 (protein, part only; not given: CD3 binder and albumin binder, part only)
chain, part: B1 chain, part with K28R, M32L, D58T, L104F
B13: anti-DLL3 trispecific protein 3B07 (protein, part only; not given: anti-CD3 fragment and anti-albumin sdAb, part only)
chain, part: B1 chain, part with K28R, M32L, D58T, L104Y
B14: anti-DLL3 trispecific protein 3A02 (protein, part only; not given: CD3 fragment and albumin sdAb, part only)
chain, part: B1 chain, part with K28S, M32L, M34L, D58A, T101R, L104Y
B15: anti-DLL3 trispecific protein 3C05 (protein, part only; not given: anti-CD3 and anti-albumin domains, part only)
chain, part: B1 chain, part with A23V, S27T, K28S, M32L, D58T, L104R
B16: anti-DLL3 trispecific protein 3B05 (protein, part only; not given: anti-CD3 and anti-albumin domains, part only)
chain, part: B1 chain, part with A23V, K28S, S30K, M32L, D58T, L104R
B17: anti-DLL3 trispecific protein 4D06 (protein, part only; not given: anti-CD3 fragment and anti-albumin sdAb, part only)
chain, part: B1 chain, part with K28S, S30K, M32L, A53P, L104Y, T105R
B18: anti-DLL3 trispecific protein 3G09 (protein, part only; not given: CD3 fragment and albumin sdAb, part only)
chain, part: B1 chain, part with K28S, F31V, M32L, D61G, L104T
B19: anti-DLL3 trispecific protein 2D03 (protein, part only; not given: anti-CD3 and anti-albumin domains, part only)
chain, part: EVQLVESGGGLVQPGGSLTLSCVASGKTSSINAMGWYRRAPGKQRELVAGISSDGSKVYADSVKGRFTISRDNAKNSVYLQMNSLRAEDTAVYYCYYFRTVSGVSMRYWGQGTLVTVSSGGGGSGGGSGGGGSGGGSHHHHHH
B20: anti-DLL3 trispecific protein 1C04 (protein, part only; not given: anti-CD3 fragment and anti-albumin sdAb, part only)
chain, part: B19 chain, part with K27N, G35A, V104S
B21: anti-DLL3 trispecific protein 2D010 (protein, part only; not given: CD3 binder and albumin binder, part only)
chain, part: B19 chain, part with K27S, V101K, V104S
B22: anti-DLL3 trispecific protein 2G09 (protein, part only; not given: CD3 fragment and albumin sdAb, part only)
chain, part: B19 chain, part with K27S, I51V, V104S, M106A
B23: anti-DLL3 trispecific protein 2F07 (protein, part only; not given: anti-CD3 fragment and anti-albumin domain, part only)
chain, part: B19 chain, part with K27S, M34V, K57S, G103T, V104S
B24: anti-DLL3 trispecific protein 1E04 (protein, part only; not given: anti-CD3 fragment and anti-albumin sdAb, part only)
chain, part: B19 chain, part with K27S, S30R, A33G, V48P, V58A, V101A, V104T
B25: anti-DLL3 trispecific protein 1D06 (protein, part only; not given: anti-CD3 fragment and anti-albumin sdAb, part only)
chain, part: B19 chain, part with K27S, G55N, S102H, V104S
B26: anti-DLL3 trispecific protein 1C07 (protein, part only; not given: anti-CD3 fragment and anti-albumin sdAb, part only)
chain, part: B19 chain, part with K27S, G35A, V104S
B27: anti-DLL3 trispecific protein 1C011 (protein, part only; not given: anti-CD3 fragment and anti-albumin domain, part only)
chain, part: B19 chain, part with K27T, A60E, V104S
B28: anti-DLL3 trispecific protein 1E07 (protein, part only; not given: anti-CD3 fragment and anti-albumin sdAb, part only)
chain, part: B19 chain, part with K27S, G35A, A60N, S102R, V104S, M106Q
B29: anti-DLL3 trispecific protein 2H06 (protein, part only; not given: anti-CD3 fragment and anti-albumin domain, part only)
chain, part: B19 chain, part with K27S, S30T, V101A, V104S
B30: anti-DLL3 trispecific protein 1A04 (protein, part only; not given: anti-CD3 fragment and anti-albumin sdAb, part only)
chain, part: B19 chain, part with K27S, A60E, V104S
B31: anti-DLL3 trispecific protein 2B05 (protein, part only; not given: anti-CD3 fragment and anti-albumin domain, part only)
chain, part: B19 chain, part with K27T, S56T, R99H, V104S
B32: anti-DLL3 trispecific protein 2B03 (protein, part only; not given: CD3 fragment and albumin sdAb, part only)
chain, part: B19 chain, part with K27S, K57L, R99T, V104S
B33: anti-DLL3 trispecific protein 1B05 (protein, part only; not given: CD3 binder and albumin binder, part only)
chain, part: B19 chain, part with K27S, G35A, F98Y, V104S
B34: anti-DLL3 trispecific protein 1E02 (protein, part only; not given: anti-CD3 fragment and anti-albumin sdAb, part only)
chain, part: B19 chain, part with K27Q, K57Q, V101K, V104S
B35: anti-DLL3 trispecific protein 1A01 (protein, part only; not given: anti-CD3 and anti-albumin domains, part only)
chain, part: B19 chain, part with K27F, K57F, T100H, V104S
B36: anti-DLL3 trispecific protein 2A01 (protein, part only; not given: anti-CD3 fragment and anti-albumin sdAb, part only)
chain, part: B19 chain, part with K27S, Y59V, V101L, V104S
B37: anti-DLL3 trispecific protein 2B012 (protein, part only; not given: anti-CD3 and anti-albumin domains, part only)
chain, part: B19 chain, part with K27T, A60N, S102R, V104S
B38: anti-DLL3 trispecific protein 2A08 (protein, part only; not given: anti-CD3 and anti-albumin domains, part only)
chain, part: B19 chain, part with K27S, S29K, A60R, V101S, V104S
B39: anti-DLL3 trispecific protein 1B010 (protein, part only; not given: CD3 fragment and albumin sdAb, part only)
chain, part: B19 chain, part with K27S, S30R, V101K, V104S
B40: anti-DLL3 trispecific protein 2A03 (protein, part only; not given: CD3 fragment and albumin sdAb, part only)
chain, part: B19 chain, part with K27T, A60G, V104S, S105A
B41: anti-DLL3 trispecific protein 2C010 (protein, part only; not given: CD3 binder and albumin binder, part only)
chain, part: B19 chain, part with K27S, S30K, G55R, S102A, V104S

Molecular target: biotinylated human DLL3 protein expressed as a human IgG1 fusion protein (human) (UniProt Q9NYJ7)
Experiment: Octet BLI; biotinylated huDLL3-IgG1 fusion on streptavidin tips; single 50 nM; conditioned medium

biotinylated human DLL3 protein expressed as a human IgG1 fusion protein (human), sequence (Q9NYJ7 other isoform, or with tags, fused parts or gaps): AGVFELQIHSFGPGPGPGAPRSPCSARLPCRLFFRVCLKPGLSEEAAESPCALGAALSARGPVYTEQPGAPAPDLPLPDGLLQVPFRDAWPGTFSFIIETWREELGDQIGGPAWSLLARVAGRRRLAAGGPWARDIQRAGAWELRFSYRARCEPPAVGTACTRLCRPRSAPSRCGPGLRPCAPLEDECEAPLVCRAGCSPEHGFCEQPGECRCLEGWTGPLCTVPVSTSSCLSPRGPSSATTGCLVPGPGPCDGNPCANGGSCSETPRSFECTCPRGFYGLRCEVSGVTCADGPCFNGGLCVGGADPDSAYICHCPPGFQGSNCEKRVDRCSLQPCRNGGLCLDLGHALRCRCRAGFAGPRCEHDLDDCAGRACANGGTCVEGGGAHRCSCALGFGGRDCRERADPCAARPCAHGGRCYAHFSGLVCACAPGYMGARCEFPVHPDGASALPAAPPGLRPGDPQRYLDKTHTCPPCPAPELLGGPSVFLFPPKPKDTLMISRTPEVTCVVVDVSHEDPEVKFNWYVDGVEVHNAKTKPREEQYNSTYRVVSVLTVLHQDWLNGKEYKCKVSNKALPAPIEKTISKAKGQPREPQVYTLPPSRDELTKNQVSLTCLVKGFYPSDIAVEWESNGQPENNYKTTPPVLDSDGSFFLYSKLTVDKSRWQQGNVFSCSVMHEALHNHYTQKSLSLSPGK

Binder | Kd
B1 | 7 nM
B2 | 8 nM
B3 | 7.6 nM
B4 | 7.8 nM
B5 | 7.5 nM
B6 | 7.2 nM
B7 | 8.3 nM
B8 | 8.2 nM
B9 | 7.5 nM
B10 | 7.1 nM
B11 | 7.5 nM
B12 | 7.1 nM
B13 | 7.3 nM
B14 | 8.1 nM
B15 | 8.2 nM
B16 | 7.2 nM
B17 | 7.5 nM
B18 | 7.3 nM
B19 | 6.8 nM
B20 | 8.1 nM
B21 | 7.3 nM

Binder | Kd
B22 | 8 nM
B23 | 8 nM
B24 | 8.1 nM
B25 | 6.8 nM
B26 | 7.1 nM
B27 | 7.6 nM
B28 | 7.1 nM
B29 | 7.9 nM
B30 | 7.8 nM
B31 | 7.4 nM
B32 | 7.6 nM
B33 | 8 nM
B34 | 7 nM
B35 | 7 nM
B36 | 8 nM
B37 | 7.3 nM
B38 | 7.7 nM
B39 | 6.8 nM
B40 | 8.2 nM
B41 | 7.6 nM
